Experimental data: the supplement of paper PMC10567573
± gives the standard deviation.

Experiment: protein stability index of a GFP-peptide fusion (GPS, HEK-293T) (PSI 1-6); higher = more stable
[1] = treatment: DMSO, c terminus: a fixed tail appended
[2] = treatment: MLN4924 1 uM, 8 h, c terminus: a fixed tail appended
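Also: 24-mer peptide tiles fused after GFP, lentivirally expressed, FACS-sorted into six equal bins by GFP/DsRed ratio, decoded by Illumina sequencing, PSI is the read-weighted mean bin number.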

Sequence | protein stability index [1] | protein stability index [2] | protein stability index (treatment: DMSO, c terminus: native) | protein stability index (treatment: MLN4924 1 uM, 8 h, c terminus: native)
ELAYLRKNHEEEMLALRGQTGGDV [KRT16] | 4.26 ± 0.28 | 4.41 ± 0.17 |  | 
ELLALETALGGQCVDRQEVAEITK [TCAP] | 4.15 ± 0.26 | 4.5 ± 0.24 |  | 
ELLCCTNVSTKEGIHLALVELLKN [INTS4] | 2.19 ± 0.74 | 2.4 ± 0.41 |  | 
ELLTGQPLWPGKSDVDQLYLIIRT [CDKL4] | 2.31 ± 0.69 | 2.24 ± 0.43 |  | 
EMFLYFEDHGLVTCSADHLIILWK [WDR41] | 2.76 ± 0.4 | 2.68 ± 0.67 |  | 
EPPQDSHSRKTVLIKTIETRNGEV [PRPH] | 4.67 ± 0.28 | 4.79 ± 0.4 |  | 
EPSSDPSLLGEPCAGPGFTHNIAH [SPAG8] | 4.65 ± 0.074 | 4.52 ± 0.22 |  | 
EPSSSKDSDENSKPSVDTEGPALV [MIA2] | 5.53 ± 0.45 | 5.51 ± 0.25 |  | 
EQHNWNIEAAVQDRLNEQEGVPSV [FAF2] | 5.05 ± 0.22 | 5.17 ± 0.32 |  | 
EQQRCLLLARLRELEQQIWKERDE [TRIM15] | 3.03 ± 0.28 | 3.29 ± 0.36 |  | 
ERAIETLIKNFHQYSVEGGKETLT [S100A14] | 3.53 ± 0.23 | 3.41 ± 0.22 |  | 
ERGVEGDFLIRDSESSPSDFSVSL [NCK2] | 4.37 ± 0.2 | 4.26 ± 0.25 |  | 
ERMTTREKKVLEAGMGKVTSASFG [HDAC6] | 4.1 ± 0.14 | 4.19 ± 0.14 |  | 
ERQDMYQCLVEGCTEKFKTSRDRK [ZNF511] | 4.09 ± 0.48 | 4.29 ± 0.25 |  | 
ERYEIDSLIGKGSFGQVVKAYDHQ [DYRK1B] | 3.92 ± 0.21 | 4.02 ± 0.17 |  | 
ERYFIPVSCFLTFNIFDWLGRSLT [SLC29A1] | 2.77 ± 0.26 | 3.08 ± 0.46 |  | 
ETCSCGYYLHPLPAGAEYCSSARH [SCNN1D] | 3.52 ± 0.36 | 3.63 ± 0.43 |  | 
EVSCQCQLHPPRWYSRLQACQWGG | 2.17 ± 0.13 | 2.29 ± 0.4 |  | 
EVTDKEQEFAARAAKQLEYQQLED [EPB41L3] | 5.65 ± 0.27 | 5.62 ± 0.33 |  | 
EVYQEVQAMFDTLGIPKSTTSDIP [FAM98B] | 3.09 ± 0.31 | 3.5 ± 0.49 |  | 
EWAALGNMSKEDAMVEFVKLLNRC [ACBD3] | 2.48 ± 0.22 | 2.59 ± 0.3 |  | 
FDFDDDGTLNREDLSRLVNCLTGE [CIB1] | 4.21 ± 0.21 | 4.29 ± 0.34 |  | 
FDRVDENNPEYLRERNMAPDLRQD [ADD1] | 5.1 ± 0.064 | 5.32 ± 0.25 |  | 

Sequence | protein stability index [1] | protein stability index [2] | protein stability index (treatment: DMSO, c terminus: native) | protein stability index (treatment: MLN4924 1 uM, 8 h, c terminus: native)
FDTLATVGTGTFGRVHLVKEKTAK [PRKX] | 4.66 ± 0.22 | 4.54 ± 0.41 |  | 
FEFEVRVCDSCHEAITDEERAPTA [WDFY2] | 3.48 ± 0.33 | 3.57 ± 0.086 |  | 
FEKWEQETAAGKGKGEARARLKRS [SMTNL2] | 4.87 ± 0.15 | 5.07 ± 0.21 |  | 
FERLCLTWMFFFMMCVAERTYKQR [PHTF1] | 2.82 ± 0.54 | 3.3 ± 0.49 |  | 
FEYSTIKCRDLSALMHELSNDGAR [BTBD10] | 2.53 ± 0.31 | 2.57 ± 0.41 |  | 
FFGMAFNFIVNDSRKKPIWNVLMW [SOAT1] | 2.6 ± 0.55 | 2.19 ± 0.73 |  | 
FFLAILSCSEICYTFIIVPKMLVD [OR10K2] | 3.42 ± 0.36 | 2.89 ± 0.28 |  | 
FFNTLHVGGTIRTCQKFLIQYNRR [POP5] | 2.02 ± 0.19 | 2.06 ± 0.23 |  | 
FGGPFVESSTREVVFPYTSKSCMR [RHOBTB2] | 2.54 ± 0.8 | 2.98 ± 0.75 |  | 
FIALLILFILSTLVVDYIDEGRLV [SOAT1] | 3.18 ± 0.3 | 3.26 ± 0.5 |  | 
FIYMVLSLFIALITGAYDTIKHPG [MCOLN1] | 2.94 ± 0.21 | 2.85 ± 0.28 |  | 
FLDIPRSRLVKYPLLLKEILKHTP [NET1] | 1.99 ± 0.55 | 2.34 ± 0.18 |  | 
FLMDLPSAGRSMPEASDQEEHLSP [RNF180] | 4.82 ± 0.21 | 5.08 ± 0.14 |  | 
FLTTAIRPHGIFGPRDPQLVPILI [NSDHL] | 2.69 ± 0.53 | 2.42 ± 0.41 |  | 
FLVVLKTVLENEDDMLLFDEQEKG [FAN1] | 2.34 ± 0.23 | 2.28 ± 0.26 |  | 
FPELGYSYGGGSASSQHSEGSRSS [DVL3] | 3.39 ± 0.28 | 4.03 ± 0.53 |  | 
FPRLNRNKYMVTDGAAYIGNFDWV [PLD5] | 2.32 ± 0.89 | 2.32 ± 0.23 |  | 
FQFLSWPDYGVPSSAASLIDFLRV [PTPN9] | 2.7 ± 0.36 | 2.53 ± 0.41 |  | 
FRQLCYQETPGPREALTRLQELCY [ZSCAN9] | 2.48 ± 0.14 | 2.62 ± 0.25 |  | 
FSQETVMKFVPRYSLVLELSDSGA [APMAP] | 2.75 ± 0.71 | 2.09 ± 0.27 |  | 
FSSYNKQDNNCHFDAALVSFINFF [SLC6A17] | 2.81 ± 0.39 | 2.64 ± 0.41 |  | 
FVDFFVRLFTQLKFGVVQTSVEEC [CLCN6] | 3.59 ± 0.27 | 3.07 ± 0.68 |  | 
FYIGKYFGGVLEYFMIQALNQKTS [RHOBTB3] | 2.96 ± 0.33 | 3.31 ± 0.58 |  | 

Sequence | protein stability index [1] | protein stability index [2] | protein stability index (treatment: DMSO, c terminus: native) | protein stability index (treatment: MLN4924 1 uM, 8 h, c terminus: native)
FYKDWWNSTSYSNYYRTWNVVVHD [SOAT1] | 2.46 ± 0.39 | 2.15 ± 0.31 |  | 
GALPVGSNLTSNLASLVSQGMIQL [RETREG3] | 2.21 ± 0.24 | 2.46 ± 0.16 |  | 
GAPTSLQTEPQDRSPAPMSCDKST [BCL2L11] | 5.36 ± 0.3 | 5.36 ± 0.1 |  | 
GARCATWFQDPTRFTGTMDAFVKI [SLC25A39] | 2.36 ± 0.5 | 2.61 ± 0.54 |  | 
GATYLELHSLDDFYIGKYFGGVLE [RHOBTB3] | 2.6 ± 0.61 | 2.32 ± 0.23 |  | 
GAVTASKHSNSPPLVTPPQSPVSP [SMTNL2] | 5.33 ± 0.25 | 5.26 ± 0.19 |  | 
GCKGFFRRSMKRKALFTCPFNGDC [VDR] | 2.47 ± 0.43 | 2.21 ± 0.14 |  | 
GDLAYRRQEYQKALQEYSSISEKL [C8orf76] | 4.14 ± 0.25 | 4.16 ± 0.2 |  | 
GDLQETTVVTGLGPDTQDLEGQSP [PBXIP1] | 5.62 ± 0.23 | 5.58 ± 0.2 |  | 
GDVAIKLKFLEENKIKVMHKQLLL [ARFIP2] | 2.25 ± 0.31 | 2.12 ± 0.26 |  | 
GDVMFTGTADGRVVKLENGEIETI [APMAP] | 4.73 ± 0.51 | 5.06 ± 0.29 |  | 
GEATAAPAPLCGGPSAEAYLLHPA [TBX6] | 4.17 ± 0.22 | 4.47 ± 0.13 |  | 
GEGVDKLSLPARNQAGYFMLPTVI [ALDH8A1] | 2.19 ± 0.18 | 2.36 ± 0.18 |  | 
GELLATGDKGGRVVIFQREPESKN [PPP2R2C] | 4.61 ± 0.37 | 4.93 ± 0.21 |  | 
GEQDCCGERVVINISGLRFETQLK [KCNA3] | 2.52 ± 0.21 | 2.57 ± 0.35 |  | 
GEQDTWAGEGAEALARNLLVDGET [NFE2L1] | 5.18 ± 0.57 | 5.15 ± 0.46 |  | 
GEVIHCKLRAMKELSEAAEAQHGP [STX11] | 4.03 ± 0.38 | 4.22 ± 0.11 |  | 
GEVLKSSTFSSGPSDKMKWCLRVN [SPOPL] | 2.46 ± 0.26 | 2.43 ± 0.23 |  | 
GFPRVAPEDEVIVNQYVIRPGPSA [RNF208] | 3.66 ± 0.25 | 3.67 ± 0.13 |  | 
GFSCNQGRYPLIQTLRQELSLPYL [CHIT1] | 2.16 ± 0.33 | 2.4 ± 0.24 |  | 
GGDGDDMEIFMEEMREIRRKLREL [BEX3] | 3.13 ± 0.49 | 2.04 ± 0.4 |  | 
GGFGGGVGGGFGGGFGGGDGGLLS [KRT15] | 3.4 ± 0.71 | 3.98 ± 0.14 |  | 
GGGADTGTGGEEVEALQLSARWLE [FBXO33] | 4.91 ± 0.41 | 5.03 ± 0.43 |  | 

Sequence | protein stability index [1] | protein stability index [2] | protein stability index (treatment: DMSO, c terminus: native) | protein stability index (treatment: MLN4924 1 uM, 8 h, c terminus: native)
GGGGQGDGGSSLASGSTQRQPPPP [FBXO28] | 5.38 ± 0.19 | 5.27 ± 0.29 |  | 
GGGPGDGGGADTGTGGEEVEALQL [FBXO33] | 5.38 ± 0.16 | 5.32 ± 0.37 |  | 
GGLLSYDEGGITKQPPVTQSKTAS [FBF1] | 4.96 ± 0.18 | 4.89 ± 0.33 |  | 
GGTVKLADFGLARIYSYQMALTPV [CDK4] | 2.36 ± 0.27 | 2.17 ± 0.11 |  | 
GGYGGGVSCGFGGGAGSGFGGGYG [KRT13] | 2.23 ± 0.19 | 2.38 ± 0.28 |  | 
GHRPPPARSGHRCVADNTNLYVFG [KLHDC10] | 2.3 ± 0.33 | 2.44 ± 0.24 |  | 
GILRRILRTLRDFPAEERARVLDR [ANKRD9] | 2.39 ± 0.28 | 2.47 ± 0.65 |  | 
GIVESIQIMKEGKATASEAVDCKW [NETO1] | 3.71 ± 1.3 | 3.99 ± 0.2 |  | 
GIVLQGPALCFAAAIFSLFFVPLS [TMEM175] | 2.89 ± 0.34 | 2.83 ± 0.17 |  | 
GKAYGWCSELIRHRRVHARKEPSH [ZNF232] | 3.23 ± 0.17 | 3.26 ± 0.38 |  | 
GKKKISKADIGAPSGFKHVSHVGW [WAS] | 3.06 ± 0.24 | 3.1 ± 0.15 |  | 
GKKQEYLENRIQREIALAKKHGTQ [CHMP4C] | 3.92 ± 0.35 | 4.13 ± 0.14 |  | 
GKTFKQSSNLGQHQRIHTGEKPFE [ZNF232] | 4.46 ± 0.41 | 4.48 ± 0.17 |  | 
GLRAATMSAVEAATCRAKELSRK [PYCR3] |  |  | 5.1 ± 0.95 | 4.97 ± 0.18
GLSQAPQPLADEGPPGRSIGGAAP [SERTAD1] | 5.05 ± 0.31 | 5.29 ± 0.21 |  | 
GMAFFKMREMFFEDHIDDAKYCGH [CNOT7] | 2.35 ± 0.2 | 2.36 ± 0.16 |  | 
GMVTRCIIEVLSNALSKSSAPPIT [CHGB] | 3.07 ± 0.29 | 3.08 ± 0.23 |  | 
GNATLLRIIYQNKCMRNGPNALIA [EDNRA] | 2.66 ± 0.79 | 2.51 ± 0.32 |  | 
GNDFTQNAGTGLVINQADVRNNRS [PLD5] | 4.58 ± 0.35 | 4.55 ± 0.35 |  | 
GNFPTMEVKPKDIIHVVKDQLIGQ [TENT5D] | 4.08 ± 0.33 | 3.98 ± 0.35 |  | 
